Assay results published in patent publication US20260015399A1 (Boehringer Ingelheim, published 2026).
Values belong to the binder of their own block, whether it stands above or below them. *1 amine or outer side, *2 acyl side, *3 side chain or, on linkers, in order; H or OH if unused. Side-chain parts run from the residue outwards. The star is where a group is joined. C18 diacid = O=C(O)CCCCCCCCCCCCCCCCC(=O)*; γGlu = O=C(O)[C@H](CCC(=O)[*:2])N[*:1]; Isovaleryl = CC(C)CC(=O)*; Ahx = NCCCCCC(=O)O

Biological target: T1, human NPY2 receptor (human, UniProt P49146 1-381)
T1 construct: whole, on cells; also called hNPY2-R; hNPY2R
T1 sequence (looked up): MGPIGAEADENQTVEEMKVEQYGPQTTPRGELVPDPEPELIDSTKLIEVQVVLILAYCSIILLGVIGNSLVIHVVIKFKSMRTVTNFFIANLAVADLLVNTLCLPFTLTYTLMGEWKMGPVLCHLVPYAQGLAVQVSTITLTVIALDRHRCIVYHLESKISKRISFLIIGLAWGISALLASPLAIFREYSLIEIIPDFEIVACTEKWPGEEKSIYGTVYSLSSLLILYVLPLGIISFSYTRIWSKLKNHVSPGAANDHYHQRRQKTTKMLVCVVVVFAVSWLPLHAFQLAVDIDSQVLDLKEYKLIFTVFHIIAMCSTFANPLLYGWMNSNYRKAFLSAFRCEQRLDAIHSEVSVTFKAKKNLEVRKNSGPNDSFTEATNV
Assay: RLB: displacement of 125I-PYY(1-36) from hNPY2R membranes

Ki: 2.05 nM
B1: Compound 166 (peptide)
peptide: Isovaleryl-APAK([Ahx-γGlu-C18 diacid])PEEDASPEELQRYYVELRHYYNWLTRQRY-NH2
SMILES: CC(C)CC(=O)N[C@@H](C)C(=O)N1CCC[C@H]1C(=O)N[C@@H](C)C(=O)N[C@@H](CCCCNC(=O)CCCCCNC(=O)CC[C@H](NC(=O)CCCCCCCCCCCCCCCCC(=O)O)C(=O)O)C(=O)N1CCC[C@H]1C(=O)N[C@@H](CCC(=O)O)C(=O)N[C@@H](CCC(=O)O)C(=O)N[C@@H](CC(=O)O)C(=O)N[C@@H](C)C(=O)N[C@@H](CO)C(=O)N1CCC[C@H]1C(=O)N[C@@H](CCC(=O)O)C(=O)N[C@@H](CCC(=O)O)C(=O)N[C@@H](CC(C)C)C(=O)N[C@@H](CCC(N)=O)C(=O)N[C@@H](CCCNC(=N)N)C(=O)N[C@@H](Cc1ccc(O)cc1)C(=O)N[C@@H](Cc1ccc(O)cc1)C(=O)N[C@H](C(=O)N[C@@H](CCC(=O)O)C(=O)N[C@@H](CC(C)C)C(=O)N[C@@H](CCCNC(=N)N)C(=O)N[C@@H](Cc1c[nH]cn1)C(=O)N[C@@H](Cc1ccc(O)cc1)C(=O)N[C@@H](Cc1ccc(O)cc1)C(=O)N[C@@H](CC(N)=O)C(=O)N[C@@H](Cc1c[nH]c2ccccc12)C(=O)N[C@@H](CC(C)C)C(=O)N[C@H](C(=O)N[C@@H](CCCNC(=N)N)C(=O)N[C@@H](CCC(N)=O)C(=O)N[C@@H](CCCNC(=N)N)C(=O)N[C@@H](Cc1ccc(O)cc1)C(N)=O)[C@@H](C)O)C(C)C

Ki: 4.58 nM
B2: Compound 167 (peptide)
peptide: Isovaleryl-APAK([Ahx-γGlu-C18 diacid])PEEAAEPEEIQRYYVALRHYYNWLTRQRY-NH2
SMILES: CC[C@H](C)[C@H](NC(=O)[C@H](CCC(=O)O)NC(=O)[C@H](CCC(=O)O)NC(=O)[C@@H]1CCCN1C(=O)[C@H](CCC(=O)O)NC(=O)[C@H](C)NC(=O)[C@H](C)NC(=O)[C@H](CCC(=O)O)NC(=O)[C@H](CCC(=O)O)NC(=O)[C@@H]1CCCN1C(=O)[C@H](CCCCNC(=O)CCCCCNC(=O)CC[C@H](NC(=O)CCCCCCCCCCCCCCCCC(=O)O)C(=O)O)NC(=O)[C@H](C)NC(=O)[C@@H]1CCCN1C(=O)[C@H](C)NC(=O)CC(C)C)C(=O)N[C@@H](CCC(N)=O)C(=O)N[C@@H](CCCNC(=N)N)C(=O)N[C@@H](Cc1ccc(O)cc1)C(=O)N[C@@H](Cc1ccc(O)cc1)C(=O)N[C@H](C(=O)N[C@@H](C)C(=O)N[C@@H](CC(C)C)C(=O)N[C@@H](CCCNC(=N)N)C(=O)N[C@@H](Cc1c[nH]cn1)C(=O)N[C@@H](Cc1ccc(O)cc1)C(=O)N[C@@H](Cc1ccc(O)cc1)C(=O)N[C@@H](CC(N)=O)C(=O)N[C@@H](Cc1c[nH]c2ccccc12)C(=O)N[C@@H](CC(C)C)C(=O)N[C@H](C(=O)N[C@@H](CCCNC(=N)N)C(=O)N[C@@H](CCC(N)=O)C(=O)N[C@@H](CCCNC(=N)N)C(=O)N[C@@H](Cc1ccc(O)cc1)C(N)=O)[C@@H](C)O)C(C)C
